According to the DeepSol protein solubility set:

Assay: soluble on expression in E. coli; label from the status in PepcDB or PDB records

| Sequence | soluble on expression in E. coli |
| --- | --- |
| MTQVLVRNGIQAVGDGLTSLIIVGKKSVLKNVTFEGKFKEVAQKFVTDGDSWNSMISRIPASGRHPLHYELAHLITVPDASSRGNTPTNAHSIYKELKPINYPEDTKNVHFVLFAEYPDVLSHVAAIARTFCKFSMKTSGIRELNVNIDVVCDKLTNEDAVFLTDLSESVRETARLIDTPANILTTDALVDEAVKVGNATGSKITVIRGEELLKAGFGGIYHVGKAGPTPPAFVVLSHEVPGSTEHIALVGKGVVYDTGGLQIKTKTGMPNMKRDMGGAAGMLEAYSALVKHGFSQTLHACLCIVENNVSPIANKPDDIIKMLSGKTVEINNTDAEGRLILADGVFYAKETLKATTIFDMATLTGAQAWLSGRLHGAAMTNDEQLENEIIKAGKASGDLVAPMLFAPDLFFGDLKSSIADMKNSNLGKMDGPPSAVAGLFIGAHIGFGEGLRWLHLDIAAPAEVGDRGTGYGPALFSTLLGKYTSVPMLKQ | soluble |
| MILDTDYITENGKPVIRVFKKENGEFKIEYDRTFEPYFYALLKDDSAIEDVKKVTAKRHGTVVKVKRAEKVQKKFLGRPIEVWKLYFNHPQDVPAIRDRIRAHPAVVDIYEYDIPFAKRYLIDKGLIPMEGDEELTMLAFAIATLYHEGEEFGTGPILMISYADGSEARVITWKKIDLPYVDVVSTEKEMIKRFLRVVREKDPDVLITYNGDNFDFAYLKKRCEELGIKFTLGRDGSEPKIQRMGDRFAVEVKGRIHFDLYPVIRRTINLPTYTLEAVYEAVFGKPKEKVYAEEIAQAWESGEGLERVARYSMEDAKVTYELGREFFPMEAQLSRLIGQSLWDVSRSSTGNLVEWFLLRKAYKRNELAPNKPDERELARRRGGYAGGYVKEPERGLWDNIVYLDFRSLYPSIIITHNVSPDTLNREGCKEYDVAPEVGHKFCKDFPGFIPSLLGDLLEERQKIKRKMKATVDPLEKKLLDYRQRAIKILANSFYGYYGYAKARWYCKECAESVTAWGREYIEMVIRELEEKFGFKVLYADTDGLHATIPGADAETVKKKAKEFLKYINPKLPGLLELEYEGFYVRGFFVTKKKYAVIDEEGKITTRGLEIVRRDWSEIAKETQARVLEAILKHGDVEEAVRIVKEVTEKLSKYEVPPEKLVIHEQITRDLRDYKATGPHVAVAKRLAARGVKIRPGTVISYIVLKGSGRIGDRAIPADEFDPTKHRYDAEYYIENQVLPAVERILKAFGYRKEDLRYQKTKQVGLGAWLKVKGKK | soluble |
| MSLKISDVVVELFREAAIYLPEDVKNALEEAYKKESSEISKNTLKAIIENNKIAEETQVPLCQDTGVPIVFLKIGKNINSSEIMKIIEEIKEGVKKATEEVPLRPNVVHPLTRENFKTNVGLNSPFINIEFDESLDREIEIIAFPKGAGSENMSALKMLKPSDGIEGIKNFVLETIANAGGKPCPPIVVGIGIGGTADVALKLAKKALLRKIGERHRDKEIANLEKELLEKINSLGIGAMGLGGDITALDVFIEIAGCHTASLPVGICIQCWADRRAIKRIKLDAKEGGSHHHHHH | soluble |
| MAHHHHHHMLLLLEREHPAVHAAVERILRGDSKIPVSVVRDFDGCEYHIRVEWDKEEKEMSQTSGVDSKDTGSGEVGTVNVGGTASVTVSLRSFTPFAELNTHGNFYEVLTTLFPSELQKFVVCDTHKGDGEDFTVAVHIPSNVPAKMLKEAMHSTAQLRAWSFVPAFARQFELFLTNPEVVQPLQLHYHDGEEMVVYNNRGSFIVAIALRVPSKDDAVLTRHFLQAMVEVRKHERSFCGSSAFIFEQGGPPDSVVAVTGPRGRVRDPNTFWCSFQLYKQQMEPPPRLVETVMHLVNFRTTLAYHIRAGRTYMHGIMRKRVESSLQWLNKAKARVAEETKITIT | not soluble |
| ETELEQKAIDYDELERLNSTIVSNLNSGLITVTGDGRIRVFNRYAEALTGIGLAEAYDCHLFDVLPGFRVYADVLANVKRGEFEFIAKMGRKLTIGFSSVPLMLKDSDAAGILLNFQDVT | not soluble |
| MEKLNRAADDSMINTLSEKSNEFSFYQAVLLLEKHYQFEPNSNFVAVGENKYFHQERIEFSVSPNLCFPKSDMEFIVHMERNGQQYSRVETNFLGLHGSSSPLPVSYTEKLTGREPDDNPVKDFFDFFHNRYTSLLYRVWKKYRYHVQYQSGATDAFSGRMLHLAGLSGVMQDCGVAELDRAKVLSYVNQLSTRTRSPKLISGIVSHYFSLPSVRIEEWVYRRVEIADSQRNKLNRANCILGQSFHLGQSIADLNGKFNLCIDDIDFETFKQFSYEGELHKTLVGLMRFILRDPMSWDLKLTVNLDSIPNNQLGNGEGNNLGQTFWLGNPTDEDVKIRVIGSI | not soluble |
| MPKSVKVIAVTPEEREAVMSIDFGGAYDFTSPGFNLFEVREKYSEPMDAAAGVVYNLLWNSGLPEKFGCREQTLLNFILQCRRRYRRVPYHNFYHVVDVCQTLHTYLYTGKASELLTELECYVLLVTALVHDLDHMGVNNSFYLKTDSPLGILSSASGNNSVLEVHHCSLAIEILSDPAADVFEGLSGQDVAYAYRALIDCVLATDMARHGDLSRVFDDMAKAGYDSNDQESRRLVMETLIKAGDVSNVTKPFETSRMWAMAVTEEFYRQGDMEKEKGVEVLPMFDRSKNNELARGQIGFIDFVAGKFFRDIVGNLFHGMQWCVDTVNSNRAKWQEILDGRRDSIRPSIV | soluble |
| MLLEERLSQISQIIDKEGSATIDFLAQKLEVSKDTIRRDLIKLESRKKLHRVHGGAIPIGKEAEILNYEERSNISTSLKKKIASKIKNLIKDHSTLIFDSSTTVEVAIKQLDNFSISTITNSLTNAILLSKYEMATVQLLPGKLNKNQLFLYGAETVEKLSQYQVDFTILGVFALSNNGLFIHTEEEGLVKRKMIQQGKQVIAIADHTKLNKEGFFKICDLKEIDYLITDEKIEGELMNNLNDNNVKVVTINELEHHHHHH | soluble |
| MGSDKIHHHHHHMTINQEHLTDCKLCKAHSWELVATLISGIWDKRHDELNREELRFPIGQCTKCHHVQVAIPYTQSIFDSLYFSNQAEPDMWCETPNGQKSPYEEMLEFIAPYIQDGAHIVDFGAGAGTTLKHIENTHKERQLTLASVDFHNHIQSETIEYLSADLNKLEALQAEFVTQPISLAISTHVLEHLIDPIHFLTQIRSMLSDDGHIFIEVPDCSPDAFIEHLAFTNLVHGQHIHYYSKDSLAQIARLAGLKIDALQQLTTGDIPRLLILLSKTTQESSTTVLPVTSGADVAVVKRFNDYHAFQDSLFKQIQQALMLNDTIGIWGIGGDFYQLTQSYPELIDLIQANSIILYDYELAGHTYVGSSIRCSSAIASTRYPVFMLPLYAPTREKMHQVSQSWSAQVIDPF | not soluble |
| MRRKMERIALIEDDKDLAFLVKLNLEREGFEVEHFERATPFFKFISENSVDLILIDIMLPDLDGFRIANFLKSRADLKEIPVIFITAKGEEEDKLKGFELGADDYITKPFSMKELIARVRAVLKRYKKVSESKVLKYEGVELDTERQKLFVDGREVYLTPAEFKILKTLMENFGRPVSRSSLVEKLWDYERETTERAIDVHVKHIRDKLGKYKGLIKTVRGVGYKFEN | soluble |
| MAKQIKGIAASDGVAIAKAYLLVEPDLSFDNESVTDTDAEVAKFNGALNKSKVELTKIRNNAEKQLGADKAAIFDAHLLVLEDPELIQPIEDKIKNESVNAAQALTDVSNQFITIFESMDNEYMAERAADIRDVSKRVLAHILGVELPNPSIVDESVVIIGNDLTPSDTAQLNKEYVQGFVTNIGGRTSHSAIMSRSLEIPAVVGTKSITEEVEAGDTIVVDGMTGDVLINPSDEVIAEYQEKRENFFKDKQELQKLRDAESVTADGHHVELAANIGTPNDLPGVIENGAEGIGLYRTEFLYMGRDQMPTEEEQFEAYKAVLEAMKGKRVVVRTLDIGGDKELPYLDLPEEMNPFLGYRAIRLCLDQPEIFRPQLRALLRASVFGKLNIMFPMVATIQEFRDAKALLEEERANLKNEGYEVADDIELGIMVEIPSTAALADIFAKEVDFFSIGTNDLIQYTMAADRMSERVSYLYQPYNPAILRLVKQVIEASHAEGKWTGMCGEMAGDQTAIPLLLGLGLDEFSMSATSILKARRLIRSLNESEMKELSERAVQCATSEEVVDLVEEYTKNA | soluble |
| MGSDKIHHHHHHMENFVFHNPTKIVFGRGTIPKIGEEIKNAGIRKVLFLYGGGSIKKNGVYDQVVDSLKKHGIEWVEVSGVKPNPVLSKVHEAVEVAKKEKVEAVLGVGGGSVVDSAKAVAAGALYEGDIWDAFIGKYQIEKALPIFDVLTISATGTEMNGNAVITNEKTKEKYGVSSKALYPKVSIIDPSVQFTLPKEQTVYGAVDAISHILEYYFDGSSPEISNEIAEGTIRTIMKMTERLIEKPDDYEARANLAWSATIALNGTMAVGRRGGEWACHRIEHSLSALYDIAHGAGLAIVFPAWMKYVYRKNPAQFERFAKKIFGFEGEGEELILKGIEAFKNWLKKVGAPVSLKDAGIPEEDIDKIVDNVMLLVEKNLKPKGASLGRIMVLEREDVREILKLAAK | soluble |
| MGSDKIHHHHHHMPGKAKGRSLTAAQFNLRSDRLIAGKALRNVLPRTEQASWQPAQDRRDPIAILEDSNQGRVPELIPIRYGRMLRSPFTFLRGSAAIMAYDLATTPNTGIHVQACGDCHLLNFGLFATPERNLVFDINDFDETHPAPWEWDLKRLAVSFVIAARNNQVVDQEAESIAVSCTRSYREHLRNYSRMSPLEVWYARLEMKEIIEMAPTEKIRKRREEFAERAQKRIAEHLFPKIVTLKEGKHQFVDQPPILFHSNDPTLRNRVINGLQAYRKSLPDERRVLFDRYRLEDYATKVVGIGSVGTHCSIALFFSEENHPLILQVKEARQSVLEPYTQTNCYENQGQRVVVGQRLMQSSSDIFLGWARSDLGRDFYVRQLRDMKFSLPIDGMQAERFHRYAEFCGWALARAHAKAGDAATISGYLGKADAFDEAIAKFAVAYADQTEQDYTALVQAVASGRIEAIVEEDL | not soluble |
| MFSQAQFNVTMAEEDRWKQWYPNMEMIVNNKGPKLIFPELNFNITGLEEKSRYVVLLSIEKYDNIRYGYRNGKWGPSKVRHATKKEQEIKYFLHPDGTKLGKELMKETIKFDTVRITNHKKFMDKDNVFFVETMHKYVPVLTVKNITNVESANHSMRMEVAQFFPVTVYNQESIGNWKSKFHKNSTYGNRLDGGNKRKNTDSSEERTSKRSKNETEIAVSDILQVASQSENYNESTNSGRLQNEISSSIHQFPSTSYQNQYPHAYPTVNTPPIYVQQFTALFDEIHNQFDPKTKQNRVAKNVQYLSSVPQFAINQKENIHQNAPDYPVSQFPNQYPYGSYPYYYPYFQSSQQFPHLNYSMNNSIYSDSSFQSSFSAENSYFDENGNPIHYPYYSSN | not soluble |
| MSIRLAQVTDIPVLKELLNQIFQVHQTVRPDLFKNTDKGSKYSETELKELLQDESKPIFVYTDGKNRVLGHLFLVIKETKGSSVSKPLKTLFIDDLCVSKEARGQKIGQELFEFALKYAKKLGCYDLTLNVWNDNKGALAFYERQGLKARETKMEKILLEHHHHHH | soluble |
| MAHHHHHHMQKHNIKLNQNQDISQLFHDEVPLFDNSITSKDKEVIETLSEIYSIVITLDHVEKAYLKDSIDDTQYTNTVDKLLKQFKVYLNSQNKEEINKHFQSIEAFCDTYNITASNAITRLERGIPITAEHAISTTTSAPSGDNKQSSSSDKK | soluble |
| GPGSMSSSDQFLVDELRSRLKRRRADIVRYLDGLFYEDCRRIIECVSELDSDNLFLRNPSSLPDYAQHVTRPMYWELIQRKLQRYEYRAAADFMADMRAVVNNCYLYNGIQAPASKLARAIEVLMEDRFVTELRAAPVQPAEVK | not soluble |
| MKKVIGIGEYAVMKNPGVIVTLGLGSCVAVCMRDPVAKVGAMAHVMLPDSGGKTDKPGKYADTAVKTLVEELKKMGAKVERLEAKIAGGASMFESKGMNIGARNVEAVKKHLKDFGIKLLAEDTGGNRARSVEYNIETGKLLVRKVGGGEQLEIKEI | soluble |
